The target in this assay is NKG2D ligand MIC-A and MIC-B molecules on tumor cells. The experiment in a line: cell-based or functional assay.

In turn, “fusion protein NKG2D-CD8αhinge-CD8TM-4-1BB-CD3ζ (chimeric antigen receptor expressed on NK-92 cells)” gave a specific lysis activity (CCK-8), A549 cells, effector:target 0.5:1 of 21%; a specific lysis activity (CCK-8), A549 cells, effector:target 1:1 of 30%; a specific lysis activity (CCK-8), H1299 cells, effector:target 0.5:1 of 39%; a specific lysis activity (CCK-8), H1299 cells, effector:target 1:1 of 80%. This substance came in with a specific lysis activity (CCK-8), MCF-7 cells, effector:target 0.5:1 of 43%; a specific lysis activity (CCK-8), MCF-7 cells, effector:target 1:1 of 56%; a specific lysis activity (CCK-8), MDMB-231 cells, effector:target 0.5:1 of 7%; a specific lysis activity (CCK-8), MDMB-231 cells, effector:target 1:1 of 14%. Further, the specific lysis activity (CCK-8), SW-480 cells, effector:target 0.5:1 was found to be 8% and the specific lysis activity (CCK-8), SW-480 cells, effector:target 1:1 was 16%.

These data come from patent publication US20200360437A1.
